Data published in publication PMC5429572, “Intrabodies against the Polysialyltransferases ST8SiaII and ST8SiaIV inhibit Polysialylation of NCAM in rhabdomyosarcoma tumor cells” (BMC Biotechnology, 2017).

Columns and labels:
[1] = target: T1, Flag-HA-tagged ST8SiaII expressed in HEK293 cells (Mus musculus (assumed), UniProt O35696, N-glycosylated (several glycoforms, fully glycosylated about 60 kDa)); assay: co-IP; HEK293 cells co-transfected with Flag-HA-tagged polyST and myc-tagged intrabody; lysis in 50 mM Tris-HCl pH 8, 1 mM MgCl2, 1% NP-40; precipitated with anti-myc antibody and Protein G PLUS Agarose; blot with anti-FLAG M5; conditions: partners not purified
T1 construct: polysialyltransferase ST8SiaII; The empty vector of the control is pcDNA3-FLAG-HA; The CHO line of the functional rows carries N-terminally Flag-HA-tagged murine ST8SiaII; also called polyST; source: HEK293, transiently transfected, in lysate

[2] = target: T2, Flag-HA-tagged ST8SiaIV expressed in HEK293 cells (Cricetulus griseus (assumed), UniProt Q64690, N-glycosylated (several glycoforms, fully glycosylated about 55 kDa)); assay: as above; conditions: partners not purified
T2 construct: polysialyltransferase ST8SiaIV; The empty vector of the control is pcDNA3-FLAG-HA; The CHO line of the functional rows carries Flag-HA-tagged hamster ST8SiaIV; also called ST8SiaVI; polyST; source: HEK293, transiently transfected, in lysate
T2 sequence (Q64690 whole entry): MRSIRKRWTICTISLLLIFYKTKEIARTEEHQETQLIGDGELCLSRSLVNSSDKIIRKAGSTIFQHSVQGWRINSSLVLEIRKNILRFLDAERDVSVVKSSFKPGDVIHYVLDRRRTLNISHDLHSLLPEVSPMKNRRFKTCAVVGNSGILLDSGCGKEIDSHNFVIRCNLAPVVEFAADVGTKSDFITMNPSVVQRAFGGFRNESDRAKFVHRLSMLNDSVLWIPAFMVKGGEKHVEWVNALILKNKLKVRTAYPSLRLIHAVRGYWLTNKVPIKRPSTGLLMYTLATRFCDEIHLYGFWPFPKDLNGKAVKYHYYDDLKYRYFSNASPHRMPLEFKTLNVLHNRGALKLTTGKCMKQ

T1 sequence (O35696 whole entry): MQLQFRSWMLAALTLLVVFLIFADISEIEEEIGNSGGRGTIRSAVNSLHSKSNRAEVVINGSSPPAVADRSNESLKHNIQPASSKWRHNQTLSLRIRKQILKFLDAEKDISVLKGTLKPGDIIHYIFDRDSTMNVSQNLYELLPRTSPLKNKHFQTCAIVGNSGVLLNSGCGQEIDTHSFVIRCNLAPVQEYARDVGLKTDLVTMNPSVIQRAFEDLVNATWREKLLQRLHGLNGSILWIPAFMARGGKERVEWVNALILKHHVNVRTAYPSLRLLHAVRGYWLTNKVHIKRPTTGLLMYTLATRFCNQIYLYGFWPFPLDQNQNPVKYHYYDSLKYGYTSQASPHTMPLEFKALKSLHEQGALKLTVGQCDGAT

B1: αST8SiaII-IB (ER intrabody against ST8SiaII, scFv from mAb 3167) (scFv, V domains shown)
VH: QVQLQQPGAELVKAGASVKLSCKASGYTFTNYWMHWVKQRPGQGLEWIGEIDPSESYTNYNQKFKGKATLTVDKSASTAYMQLSSLTSEDSAVYYCTRGDYWGQGTTLTVSS
VL: DVVVTQTPLSLPVSFGDQVSISCRSSQSLANSYGNTYLSWYLHKPGQSPQLLIYGISNRFSGVPDRFSGSGSGTDFTLKISTIKPEDLGIYYCLQGAHQPWTFGGGTKLEIK
notes: synthetic linker, printed as (Gly4 Ser)3; Encoded with an N-terminal ER signal peptide from the vector pCMV/myc/ER; the myc tag is followed by the ER retention signal; also called anti-ST8SiaII-IB; anti-ST8SiaII intrabody; source: HEK293, transiently transfected (pCMV/myc/ER), in lysate; not shown: myc, C-terminal, kept
[1]
  binding result: binds

B2: αST8SiaIV-IB (ER intrabody against ST8SiaIV, scFv from mAb 3175) (scFv, V domains shown)
VH: EVQLQQSGAELVRSGASVKLSCTTSGFNIKDYYMHWVKQRPEQGLEWIGWIDPENGDTEYAPKFQGKATMTADTSSNTAYLQLSSLTSEDTAVYYCNYRFLAMEYWGQGTSVTVSS
VL: NIMMTQSPSSLAVSAGEKVTMSCKSSQSVLYTSNQKNYLAWYQQKPGQSPKLLIYWASTRESGVPDRFTGSGSGTDFTLTISSVQAEDLAVYYCHQYLSSYTFGGGTKLEIK
notes: synthetic linker, printed as (Gly4 Ser)3; Encoded with an N-terminal ER signal peptide from the vector pCMV/myc/ER; the myc tag is followed by the ER retention signal; also called anti-ST8SiaIV-IB; anti-ST8SiaIV intrabody; source: HEK293, transiently transfected (pCMV/myc/ER), in lysate; not shown: myc, C-terminal, kept
[2]
  binding result: binds
